Source: article doi:10.1101/2024.09.25.614892 (bioRxiv, 2024)
Like-named read-outs stand apart in the source and are kept apart here.

B4: FliC (flagellin) of Salmonella enterica (natural protein, UniProt P06179 1-495, looked up)
chain: MAQVINTNSLSLLTQNNLNKSQSALGTAIERLSSGLRINSAKDDAAGQAIANRFTANIKGLTQASRNANDGISIAQTTEGALNEINNNLQRVRELAVQSANSTNSQSDLDSIQAEITQRLNEIDRVSGQTQFNGVKVLAQDNTLTIQVGANDGETIDIDLKQINSQTLGLDTLNVQQKYKVSDTAATVTGYADTTIALDNSTFKASATGLGGTDQKIDGDLKFDDTTGKYYAKVTVTGGTGKDGYYEVSVDKTNGEVTLAGGATSPLTGGLPATATEDVKNVQVANADLTEAKAALTAAGVTGTASVVKMSYTDNNGKTIDGGLAVKVGDDYYSATQNKDGSISINTTKYTADDGTSKTALNKLGGADGKTEVVSIGGKTYAASKAEGHNFKAQPDLAEAAATTTENPLQKIDAALAQVDTLRSDLGAVQNRFNSAITNLGNTVNNLTSARSRIEDSDYATEVSNMSRAQILQQAGTSVLAQANQVPQNVLSLLR

Experiments:
Assay in all cases: cryo-EM structure
[1] = molecular target: B4
cryo-EM structure [2] = molecular target: the molecule itself
[3] = molecular target: B4; remark: listed apart in the source
cryo-EM structure [4] = molecular target: the molecule itself; remark: listed apart in the source
cryo-EM structure [5] = molecular target: the molecule itself; remark: listed apart in the source

B1: FliD (flagellar filament cap protein) of Salmonella enterica (natural protein, UniProt P16328 1-467, looked up)
chain: MASISSLGVGSNLPLDQLLTDLTKNEKGRLTPITKQQSANSAKLTAYGTLKSALEKFQTANTALNKADLFKSTVASSTTEDLKVSTTAGAAAGTYKINVTQLAAAQSLATKTTFATTKEQLGDTSVTSRTIKIEQPGRKEPLEIKLDKGDTSMEAIRDAINDADSGIAASIVKVKENEFQLVLTANSGTDNTMKITVEGDTKLNDLLAYDSTTNTGNMQELVKAENAKLNVNGIDIERQSNTVTDAPQGITLTLTKKVTDATVTVTKDDTKAKEAIKSWVDAYNSLVDTFSSLTKYTAVEPGEEASDKNGALLGDSVVRTIQTGIRAQFANSGSNSAFKTMAEIGITQDGTSGKLKIDDDKLTKVLKDNTAAARELLVGDGKETGITTKIATEVKSYLADDGIIDNAQDNVNATLKSLTKQYLSVSNSIDETVARYKAQFTQLDTMMSKLNNTSSYLTQQFTAMNKS
[1]
  binding result: binds
cryo-EM structure [2]
  stoichiometry N: 5 subunits

B2: FlgL (hook-filament junction protein) of Salmonella enterica (natural protein, UniProt P16326 1-317, looked up)
chain: MRISTQMMYEQNMSGITNSQAEWMKLGEQMSTGKRVTNPSDDPIAASQAVVLSQAQAQNSQYALARTFATQKVSLEESVLSQVTTAIQTAQEKIVYAGNGTLSDDDRASLATDLQGIRDQLMNLANSTDGNGRYIFAGYKTEAAPFDQATGGYHGGEKSVTQQVDSARTMVIGHTGAQIFNSITSNAVPEPDGSDSEKNLFVMLDTAIAALKTPVEGNNVEKEKAAAAIDKTNRGLKNSLNNVLTVRAELGTQLSELSTLDSLGSDRALGQKLQMSNLVDVDWNSVISSYVMQQAALQASYKTFTDMQGMSLFQLNR
[3]
  binding result: binds
cryo-EM structure [4]
  stoichiometry N: 11 subunits

B3: FlgE (flagellar hook protein) of Salmonella enterica (natural protein, UniProt P0A1J1 1-403, looked up)
chain: MSFSQAVSGLNAAATNLDVIGNNIANSATYGFKSGTASFADMFAGSKVGLGVKVAGITQDFTDGTTTNTGRGLDVAISQNGFFRLVDSNGSVFYSRNGQFKLDENRNLVNMQGMQLTGYPATGTPPTIQQGANPAPITIPNTLMAAKSTTTASMQINLNSTDPVPSKTPFSVSDADSYNKKGTVTVYDSQGNAHDMNVYFVKTKDNEWAVYTHDSSDPAATAPTTASTTLKFNENGILESGGTVNITTGTINGATAATFSLSFLNSMQQNTGANNIVATNQNGYKPGDLVSYQINNDGTVVGNYSNEQEQVLGQIVLANFANNEGLASQGDNVWAATQASGVALLGTAGSGNFGKLTNGALEASNVDLSKELVNMIVAQRNYQSNAQTIKTQDQILNTLVNLR
cryo-EM structure [4]
  binding result: binds

## B4
cryo-EM structure [4]
  binding result: binds

B5: FliD (flagellar filament cap protein) of Campylobacter jejuni (natural protein, UniProt Q9PHW6 1-642, looked up)
chain: MAFGSLSSLGFGSGVLTQDTIDKLKEAEQKARIDPYTKKIEENTTKQKDLTEIKTKLLSFQTAVSSLADATVFAKRKVVGSISDNPPASLTVNSGVALQSMNINVTQLAQKDVYQSKGLANDGGFVNAQLNGTADLTFFSNGKEYTVTVDKNTTYRDLADKINEASGGEIVAKIVNTGEKGTPYRLTLTSKETGEDSAISFYAGKKDSNGKYQKDINAEKIFDDLGWGLDVSASIDPDKDKKGYGIKDASLHIQTAQNAEFTLDGIKMFRSSNTVTDLGVGMTLTLNKTGEINFDVQQDFEGVTKAMQDLVDAYNDLVTNLNAATDYNSETGTKGTLQGISEVNSIRSSILADLFDSQVVDGTTEDANGNKVNTKVMLSMQDFGLSLNDAGTLSFDSSKFEQKVKEDPDSTESFFSNITKYEDINHTGEVIKTGSLSKYLNSNGGNTNGLEFKPGDFTIVFNNQTYDLSKNSDGTNFKLTGKTEEELLQNLANHINSKGIEGLKVKVESYNQNNVTGFRLNFSGDGSSDFSIKGDANILKELGLSDVNITSKPIEGKGIFSKLKATLQEMTGKDGSITKYDESLTNDIKSLNTSKDSTQAMIDTRYDTMANQWLQYESILNKLNQQLNTVTNMINAANNSNN
cryo-EM structure [5]
  stoichiometry N: 5 subunits

B6: FlgK (hook-filament junction protein) of Campylobacter jejuni (natural protein, UniProt Q0P8E9 1-608, looked up)
chain: MGIFGTLYTGVTGLKASEVQIATTGNNISNANATFYTRQRVVQTTNGYITTGGVQVGTGTAVESIVRLHDEYSYYKLKGASTQLEYTKYMASTLQEIAQRFPDLQNTGILQDLENYNKAWNDFASNPNENATKIALVKASQTLTESVNNTFATLDKIQKKVNDDIKNTVDEINRIGEEIATINKQIYGQEALPTEHANELRDRRDELELTLSKLVSAVASKNEINQDNRLDTTITDPGHQYNLSIEGFSIVDGINFHPLKLDYDDKNKSYSIYYETPDEKVRDLTAKISGGQLGAQLDLRGRNYSKSEGKYEDGIIQGYMDSLDTFAKTMINETNNLYASSAKSSVTSDYLSGLKGDIPLVNYDRTIQPGSFDIVIYDDKGDKKLTKTITIDVNTTMNDIMRQINANTDDNDNKNSNDDVDDHINASFSYDAKTGDGLFQINAKSGFKVAIEDKGTNFAGAFSIGGFFSGTDASDMKVKDSILNDPSTVRASSNGVDSGNDMANKIIQLQYKKVNFYNEDGTIDNLTMEEYYRKLTGKIASDGENNNVVNSSNETLYNSVYSEYQSKSGVNTNEELAALIQYQSSYGAAAKIVSTVDQMLDTLLGLKS
cryo-EM structure [5]
  stoichiometry N: 11 subunits

B7: FlgL (hook-filament junction protein) of Campylobacter jejuni (natural protein, UniProt A0A5T0WDM5 1-750, looked up)
chain: MRITNKLNFTNSVNNSMGGQSALYQISQQLASGLKIQNSYEDASTYIDNTRLEYEIKTLEQVKESTSRAQEMTQNSMKALQDMVKLLEDFKVKVTQAASDSNSQTSREAIAKELERIKESIVQLANTSVNGQYLFAGSQVANKPFDSNGNYYGDKNNINVVTGAGTESPYNIPGWDLFFKADGDYKKQISTNVSFTDNRWDLNKDPDKTKYLTGDSKWQQLIGQGYVKDNSLDADKDFEYDDSKLDFPPTTLYVQGTKPDGTSFKSAVLVKPEDTLEDVMENIGALYGNTPNNKVVEVSMNDSGQIQITDLKQGNNKLDFHAVAFTPQADTKDELKNIIEAANQEGISMNEVTNRVMQAATAAPSNGDITKLNNPVTVTINNQQFTIDLKQTDFIKSKMTDTDGNAANGADYDNVYFEKNGNTVYGNVSQVIKGSNAYATDSTKLSEVMAGDSLNGTTLNLKVNSKGGNSYDVTINLQTSTVSYPDPNNPGQTISFPIMHTNPATGNSGVVTGSNDITYGQINDIIGMFAADKIPTTTIQANNGQINNADYTQIQQLMKDSQATVDVSMDYKGRISVTDKLSSGTNIEISLSDSQSGQFPAPPFTTTSTVQNGPNFSFSANNSLTIDEPNVDIIKDLDSMIDAVLKGNMRADSESENPRNTGMQGALERLDHLADHVSKLNTTMGAYHNTIEGVNTRTSFLSVNVQSIKSNVIDVDYGEAMMNLMQVQLAYQASLKASTTISQLSLLNYM
cryo-EM structure [5]
  stoichiometry N: 11 subunits

B8: FlgK (hook-filament junction protein) of Salmonella enterica (natural protein, UniProt P0A1J5 1-553, looked up)
chain: MSSLINHAMSGLNAAQAALNTVSNNINNYNVAGYTRQTTILAQANSTLGAGGWIGNGVYVSGVQREYDAFITNQLRGAQNQSSGLTTRYEQMSKIDNLLADKSSSLSGSLQSFFTSLQTLVSNAEDPAARQALIGKAEGLVNQFKTTDQYLRDQDKQVNIAIGSSVAQINNYAKQIANLNDQISRMTGVGAGASPNDLLDQRDQLVSELNKIVGVEVSVQDGGTYNLTMANGYTLVQGSTARQLAAVPSSADPTRTTVAYVDEAAGNIEIPEKLLNTGSLGGLLTFRSQDLDQTRNTLGQLALAFADAFNAQHTKGYDADGNKGKDFFSIGSPVVYSNSNNADKTVSLTAKVVDSTKVQATDYKIVFDGTDWQVTRTADNTTFTATKDADGKLEIDGLKVTVGTGAQKNDSFLLKPVSNAIVDMNVKVTNEAEIAMASESKLDPDVDTGDSDNRNGQALLDLQNSNVVGGNKTFNDAYATLVSDVGNKTSTLKTSSTTQANVVKQLYKQQQSVSGVNLDEEYGNLQRYQQYYLANAQVLQTANALFDALLNIR
cryo-EM structure [4]
  stoichiometry N: 11 subunits
